# Reference: patent publication US20160355553A1 (Janssen / Centocor, published 2016)
# What was measured:
# [1] = target: H3-mini3-cl9+10+11+12+14 (influenza A virus H3N2, UniProt O11283 17-566); test: FACS on HEK293F [D00012 FIG. 9B]
# [2] = target: H3-mini2-cl9+13 (influenza A virus H3N2, UniProt O11283 17-566); test: FACS on HEK293F [D00012 FIG. 9B]
# [3] = target: H3-mini2-cl9+10+11-tri (influenza A virus H3N2); test: FACS on HEK293F [D00012 FIG. 9B]
# [4] = target: H3-mini2-cl9+10+11+13-tri (influenza A virus H3N2); test: FACS on HEK293F [D00012 FIG. 9B]
# [5] = target: H3-mini2-cl9+10+11+12-tri (influenza A virus H3N2, UniProt O11283 17-566); test: FACS on HEK293F [D00012 FIG. 9B]
# [6] = target: H3-mini2-cl9+10+11+13-GCN4 (influenza A virus H3N2); test: FACS on HEK293F [D00012 FIG. 9B]
# [7] = target: H3-mini2 (influenza A virus H3N2, UniProt O11283 17-566); test: FACS on HEK293F [D00012 FIG. 9B]
# [8] = target: H3-mini2-cl9+10+11+13 (influenza A virus H3N2, UniProt O11283 17-566); test: FACS on HEK293F [D00012 FIG. 9B]
# [9] = target: H3-mini2-cl9+10+11+12 (influenza A virus H3N2, UniProt O11283 17-566); test: FACS on HEK293F [D00012 FIG. 9B]
# [10] = target: H3-mini2-cl9+10+11 (influenza A virus H3N2, UniProt O11283 17-566); test: FACS on HEK293F [D00012 FIG. 9B]
# [11] = target: H3-mini4-cl9+10+11+12+14 (influenza A virus H3N2, UniProt O11283 17-566); test: FACS on HEK293F [D00012 FIG. 9B]
# [12] = target: H3-mini2-cl9+10+12 (influenza A virus H3N2, UniProt O11283 17-566); test: FACS on HEK293F [D00012 FIG. 9B]
# [13] = target: H3-mini2-cl9+11 (influenza A virus H3N2, UniProt O11283 17-566); test: FACS on HEK293F [D00012 FIG. 9B]
# [14] = target: H3mini2-cl9+10+11-GCN4 (influenza A virus H3N2); test: FACS on HEK293F [D00012 FIG. 9B]
# [15] = target: H3-mini2-cl9+10 (influenza A virus H3N2, UniProt O11283 17-566); test: FACS on HEK293F [D00012 FIG. 9B]
# [16] = target: H3-mini2-cl9+10+11+12-GCN4 (influenza A virus H3N2, UniProt O11283 17-566); test: FACS on HEK293F [D00012 FIG. 9B]
# [17] = target: H3 Mini-HA cluster 1+7 (influenza A virus H3N2, UniProt O11283 17-566); test: FACS on HEK293F [D00010 FIG. 8B]
# [18] = target: H3 Mini-HA cluster 1+2 (influenza A virus H3N2, UniProt O11283 17-566); test: FACS on HEK293F [D00010 FIG. 8B]
# [19] = target: H3 Mini-HA cluster 1+4 (influenza A virus H3N2, UniProt O11283 17-566); test: FACS on HEK293F [D00010 FIG. 8B]
# [20] = target: H3 Mini-HA cluster 1 (influenza A virus H3N2, UniProt O11283 17-566); test: FACS on HEK293F [D00010 FIG. 8B]
# [21] = target: H3 Mini-HA cluster 1+3 (influenza A virus H3N2, UniProt O11283 17-566); test: FACS on HEK293F [D00010 FIG. 8B]
# [22] = target: H3 Mini-HA cluster 1+6 (influenza A virus H3N2, UniProt O11283 17-566); test: FACS on HEK293F [D00010 FIG. 8B]
# [23] = target: H3 Mini-HA cluster 1+8 (influenza A virus H3N2, UniProt O11283 17-566); test: FACS on HEK293F [D00010 FIG. 8B]
# [24] = target: hemagglutinin of influenza virus A/Johannesburg/33/94 (H3) (influenza A virus H3); test: cell-based or functional assay
# [25] = target: hemagglutinin of influenza virus A/Hiroshima/52/2005 (H3) (influenza A virus H3); test: cell-based or functional assay
# [26] = target: hemagglutinin of influenza virus A/Hong Kong/1/68 (H3) (influenza A virus H3N2, UniProt Q91MA7 17-566); test: cell-based or functional assay
# [27] = target: hemagglutinin of influenza virus A/EW/MPH571/08 (H8) (influenza A virus H8); test: cell-based or functional assay
# [28] = target: hemagglutinin of influenza virus A/EW/MPD411/07 (H6) (influenza A virus H6); test: cell-based or functional assay
# [29] = target: hemagglutinin of influenza virus A/Ck/HK/SSP176/09 (H9) (influenza A virus H9); test: cell-based or functional assay
binder,measurement,setting,value
"CR8057 (antibody, V domains shown) VH: EVQLVESGGGLVQPGGSLRLSCAASGFTDSVIFMSWVRQAPGKGLECVSIIYIDDSTYYADSVKGRFTISRHNSMGTVFLEMNSLRPDDTAVYYCATESGDFGDQTGPYHYYAMDV VL: QSALTQPASVSGSPGQSITISCTGSSGDIGGYNAVSWYQHHPGKAPKLMIYEVTSRPSGVSDRFSASRSGDTASLTVSGLQAEDEAHYYCCSFADSNILI",binding result,[1],no binding (tested: 5 ug/ml)
same,binding result,[2],no binding (tested: 5 ug/ml)
same,binding result,[3],no binding (tested: 5 ug/ml)
same,binding result,[4],no binding (tested: 5 ug/ml)
same,binding result,[5],no binding (tested: 5 ug/ml)
same,binding result,[6],no binding (tested: 5 ug/ml)
same,binding result,[7],no binding (tested: 5 ug/ml)
same,binding result,[8],no binding (tested: 5 ug/ml)
same,binding result,[9],no binding (tested: 5 ug/ml)
same,binding result,[10],no binding (tested: 5 ug/ml)
same,binding result,[11],no binding (tested: 5 ug/ml)
same,binding result,[12],no binding (tested: 5 ug/ml)
same,binding result,[13],no binding (tested: 5 ug/ml)
same,binding result,[14],no binding (tested: 5 ug/ml)
same,binding result,[15],no binding (tested: 5 ug/ml)
same,binding result,[16],no binding (tested: 5 ug/ml)
same,binding result,[17],no binding (tested: 5 ug/ml)
same,binding result,[18],no binding (tested: 5 ug/ml)
same,binding result,[19],no binding (tested: 5 ug/ml)
same,binding result,[20],no binding (tested: 5 ug/ml)
same,binding result,[21],no binding (tested: 5 ug/ml)
same,binding result,[22],no binding (tested: 5 ug/ml)
same,binding result,[23],no binding (tested: 5 ug/ml)
"CR9114 (antibody, V domains shown) VH: QVQLVQSGAEVKKPGSSVKVSCKSSGGTSNNYAISWVRQAPGQGLDWMGGISPIFGSTAYAQKFQGRVTISADIFSNTAYMELNSLTSEDTAVYFCARHGNYYYYSGMDVWGQGTTVTVSS VL: SYVLTQPPAVSGTPGQRVTISCSGSDSNIGRRSVNWYQQFPGTAPKLLIYSNDQRPSVVPDRFSGSKSGTSASLAISGLQSEDEAEYYCAAWDDSLKGAVFGGGTQLTVL","virus neutralization assay on MDCK cells, geomean IC50",[24],21.9 µg/mL
same,"virus neutralization assay on MDCK cells, geomean IC50",[25],12.5 µg/mL
same,"virus neutralization assay on MDCK cells, geomean IC50",[26],19 µg/mL
same,"virus neutralization assay on MDCK cells, geomean IC50",[27],8.8 µg/mL
same,"virus neutralization assay on MDCK cells, geomean IC50",[28],10.5 µg/mL
same,"virus neutralization assay on MDCK cells, geomean IC50",[29],6.3 µg/mL
same,binding result,[1],no binding (tested: 5 ug/ml)
same,binding result,[2],no binding (tested: 5 ug/ml)
same,binding result,[3],no binding (tested: 5 ug/ml)
same,binding result,[4],no binding (tested: 5 ug/ml)
same,binding result,[5],no binding (tested: 5 ug/ml)
same,binding result,[6],no binding (tested: 5 ug/ml)
same,binding result,[7],no binding (tested: 5 ug/ml)
same,binding result,[8],no binding (tested: 5 ug/ml)
same,binding result,[9],no binding (tested: 5 ug/ml)
same,binding result,[10],no binding (tested: 5 ug/ml)
same,binding result,[11],no binding (tested: 5 ug/ml)
same,binding result,[12],no binding (tested: 5 ug/ml)
same,binding result,[13],no binding (tested: 5 ug/ml)
same,binding result,[14],no binding (tested: 5 ug/ml)
same,binding result,[15],no binding (tested: 5 ug/ml)
same,binding result,[16],no binding (tested: 5 ug/ml)
same,binding result,[17],no binding (tested: 5 ug/ml)
same,binding result,[18],no binding (tested: 5 ug/ml)
same,binding result,[19],no binding (tested: 5 ug/ml)
same,binding result,[20],no binding (tested: 5 ug/ml)
same,binding result,[21],no binding (tested: 5 ug/ml)
same,binding result,[22],no binding (tested: 5 ug/ml)
same,binding result,[23],no binding (tested: 5 ug/ml)
